Measured values published in US9383360B2, “Compositions and methods relating to lyme disease” (The United States of America, as represented by the …, priority 2012, dated 2016).

Columns and labels:
Aggrecan = test: BbHtrA proteolysis assay, aggrecan substrate; assay type: biochemical, bovine, human; conditions: SDS-PAGE, silver stain, FIG. 4A
Protocol: For proteolysis assays described in Examples herein, purified protein substrates (200-600 nM) and proteases (100-150 nM) were diluted in assay buffer (50 mM HEPES, pH 7.4, 5 mM CaCl2) and incubated overnight at 37° C. Samples were boiled for 4 minutes to inactivate the proteases. Proteoglycans were deglycosylated by overnight incubation at 37° C. with 0.01 U chondroitinase ABC (Seikagaku). Reactions were stopped by the addition of SDS/PAGE sample buffer, boiled for 4 minutes, and electrophoresed on pre-cast Tris-glycine gels (BioRad). Reaction products were visualized by silver staining.
BbHtrA cleaved recombinant human aggrecan (G1-IGD-G2 domains) within the IGD (FIG. 4A). Cleavage of recombinant aggrecan generated three high molecular weight proteolytic fragments which migrated at ˜110 kd, ˜60 kd and ˜50 kd.
BbHtrA also degraded native, fully glycosylated aggrecan (FIG. 4B, lane 5). Again, this degradation required BbHtrA catalytic activity (FIG. 4B, lane 6). The BbHtrA-generated aggrecan fragments appear to be a doublet, unlike those generated by HtrA1.
Purified proteins were incubated with BbHtrA or BbHtrA^S226A as described herein. HtrA (also known as DegP) proteases belong to the family of serine proteases which contain a highly reactive serine residue in their active site. This serine (Ser210 in DegP) is part of the canonical His-Ser-Asp catalytic triad and mutation of the catalytic serine abolishes proteolytic activity (Skorko-Glonek et al., 1995). In BbHtrA, residues His119, Ser226 and Asp149 form the catalytic triad and mutation of serine 226 to alanine abolished proteolytic activity as expected (FIG. 5).
Reaction products were separated by SDS-PAGE and silver stained. Native collagen II and recombinant tenascin C were not degraded by BbHtrA indicating selectivity for proteoglycans, E-cadherin and fibronectin. FIG. 5 is an image of SDS-PAGE analysis showing that BbHtrA degrades aggrecan, neurocan, versican, brevican, biglycan, decorin, E-cadherin, and casein.

[1] = test system: chondrocyte aggregate cultures; test: Chondrocyte cytokine induction assay (Proteome Profiler Cytokine Arrays); assay type: cell-based, human
From the text: Chondrocyte aggregate cultures are used which form an extensive extracellular matrix with components characteristic of articular cartilage including aggrecan and type II collagen as described in Welter, J. et al, BioTechniques, 2007, 42(6):732-737; and Solchaga, L. A. et al., Chondrogenic Differentiation of Bone Marrow-Derived Mesenchymal Stem Cells: Tips and Tricks, 2011, 698:253-278.
To form the chondrocyte aggregate cultures, lx10^6 human mesenchymal stem cells (passage one, Lonza, catalog #PT-2501) were plated in a T150 flask (Corning) and cultured in growth media: mesenchymal stem cell basal media (MSCBM, Lonza, #PT-3238), mesenchymal growth supplements (SingleQuots, Lonza, #PT-4105), and 5 ng/ml recombinant human […] (Shenandoah Biotechnology). When confluent, cells were trypsin-released (0.5% trypsin EDTA, Gibco), expanded to two T150 flasks and fed with growth media every three days. When confluent, cells were harvested, resuspended in fresh growth media containing 5% DMSO and aliquots of 1×10^6 cells were cryopreserved in liquid nitrogen.
Human mesenchymal stem cells were used to promote chondrogenesis and chondrocyte aggregate formation for use in these studies. Two vials of passage three cryopreserved cells were thawed, plated in growth media in two T150 flasks and then expanded to six T150 flasks as above. Cells were harvested (0.5% trypsin EDTA, Gibco), pooled, enumerated and induced to chondrogenic differentiation as follows. Cells were resuspended in defined chondrocyte differentiation media: high glucose DMEM (Gibco), 50 μg/ml ascorbic acid-2-phosphate (Sigma), 39.3 ng/ml dexamethasone (Sigma), […] L-proline (Sigma), ITS+Premix (BD Biosciences), 10 ng/ml transforming growth factor β-3 (Shenandoah Biotechnology) and 30 μg/ml gentamicin sulfate+15 ng/ml amphotericin-B (GA-1000, Lonza, #PT-4504E). High density aggregates were obtained by plating, on average, 3×10^5 cells per well in a conical bottom 96 well plate (Thermo Scientific), pelleting by centrifugation (5 minutes at 600 g), and incubation at 37° C. and 5% CO2. Pellets formed coherent spherical aggregates by day two of culture. After seven days, wide bore tips were used to transfer aggregates to V-bottom 96 well plates (Corning). Aggregates were maintained in differentiation media at 37° C. and 5% CO2 for 3-5 weeks and fed every two days until experimentation.
For chondrocyte cytokine induction assays, 24 hours prior to experimentation, dexamethasone containing media was removed, aggregates were rinsed with DPBS (Gibco) and dexamethasone-free differentiation media was added. For experimentation, aggregates were transferred to 24 well plates (24 aggregates per condition), spent media was removed and fresh warmed dexamethasone-free media containing samples was added. Aggregates were then incubated at 37° C. and 5% CO2 for two days.
Recombinant BbHtrA or BbHtrA^S226A was added to culture medium and incubated with chondrocyte aggregate cultures. BbHtrA and BbHtrA^S226A were purified using an E. coli system and was expected to contain endotoxin which would have a stimulatory effect on the chondrocytes. To control for endotoxin contamination (lipopolysaccharide, LPS), an endotoxin removal kit (Noragen) was used to remove the bulk of LPS from recombinant BbHtrAs. The relative toxicity of the amount remaining in the BbHtrA and BbHtrA^S226A samples was determined by a chromogenic Limulus Amoebocyte Lysate (LAL) method (Lonza, Walkersville, Md.). Prior to addition to aggregates, LPS (44 ng, 200 EU), BbHtrA^WT (20 μg, 27.9 EU LPS) and BbHtrA^S226A ([…], 1.99 EU LPS) were incubated in 1 mg/ml polymyxin B sulfate (Sigma) on ice for 30 min with occasional mixing. Warmed dexamethasone-free medium was then added to each test condition to a final volume of 1 ml. Control aggregates were maintained in untreated medium also containing polymyxin B sulfate. The final concentration for all test conditions was 60 μg/ml polymyxin B sulfate. […]

[2] = spent medium of chondrocyte aggregates after 48 hours, cytokine array, background subtracted

B1: BbHtrA^S226A (protein)
chain: MEKKFFSGFLLSFLALSIGFFIGMHYLASNRSNIVFAEEKDNTVRALQDSFREVSKKILPSSVEVHATGVIKQSFPIPFFFFDMPEFDSERKSNWAGSGVIIGRDSQKKSLFYVVTNSHVVDKATELEVVSYDKKKHKAKLIGKDEKKDIALISFESDDATIKVADLGDSDKLEIGDWVMAVGSPFQFSFTVTAGIVSGLQRSANPNLQSRNLFIQTDAAINRGNAGGPLVNIKGEVIGINAWIASNSGGNIGLGFAIPVNNIKSTVDFFLKGKKIESAWLGISFYPLKTRDSEVLKSLGVESNDVSAAIIASLYPGSPAVKSGLRAGDIIMKVNGVSMSVFQDVTSYISDFYAGEKVNVEILRGNVKKNIEIVLAVRPKDKELSSSKMLPGFVVYPLVEDIKAQLNLRNWIKGVVVDYIDKNLASNIKMKSGDVILSVNSKSVSNLREFYDALEVGKNTYKILRGNDSFKITF
modifications: Mutant Borrelia burdorferi HtrA S226A
Cleavage of recombinant human aggrecan (G1-IGD-G2 domains) within the IGD (Aggrecan): failed to generate these fragments
Cytokines released by chondrocytes in response ([1]; additional experiments, FIG. 10: BbHtrA^WT, BbHtrA^S226A, LPS, medium alone): IL-8 and CXCL1
GROα/CXCL1 pixel density, Mean [1, 2]: 0.647
I-309/CCL1 pixel density, Mean [1, 2]: 0.163
IL-6 pixel density, Mean [1, 2]: 0.309
IL-8 pixel density, Mean [1, 2]: 1.187
MCP-1/CCL2 pixel density, Mean [1, 2]: 0.050
RANTES/CCL5 pixel density, Mean [1, 2]: 0.265
sICAM-1/CD54 pixel density, Mean [1, 2]: 0.257
